Measured values published in article PMC12599920.
Each block holds one substance with its values, some of them ahead of it.

Target: Mushroom body defect coiled-coil domain (Mud^CC)
Experiment: saturation binding (MBP pull-down, gel quantification)
Settings: read off a plot
[1] = right plot, 20 µM MudCC, parent: est. 130

- response (5 µM MudCC, parent: est. 98): 130 AU
- response (20 µM MudCC, parent: est. 140): 150 AU
Substance: MBP:Hts (110-401), full-length Hts aldolase domain (from UniProt Q02645) D310A

- response (left plot, 5 µM MudCC, parent: est. 83): 1 AU
- response (left plot, 20 µM MudCC, parent: est. 110): 5 AU
Substance: MBP:Hts (110-310), CThelix truncation of the Hts aldolase domain (from UniProt Q02645) Y159A; L162A; E165A

- response (5 µM MudCC, parent: est. 98): 110 AU
- response (20 µM MudCC, parent: est. 140): 150 AU
Substance: MBP:Hts (110-401), full-length Hts aldolase domain (from UniProt Q02645) Q177A; V181A

Substance: 3OCR_ΔCT, P. syringae aldolase enzyme with the CThelix deleted FLEaaa
- response (10 µM MudCC, parent: est. 110): 27 AU
- response (20 µM MudCC, parent: est. 140): 46 AU
- response (40 µM MudCC, parent: est. 140): 57 AU

- response (5 µM MudCC, parent: est. 98): 93 AU
- response (20 µM MudCC, parent: est. 140): 150 AU
Substance: MBP:Hts (110-401), full-length Hts aldolase domain (from UniProt Q02645) Q151A; E152A

- response (left plot, 5 µM MudCC, parent: est. 110): 100 AU
- response (left plot, 20 µM MudCC, parent: est. 130): 120 AU
Substance: MBP:Hts (110-310), CThelix truncation of the Hts aldolase domain (from UniProt Q02645) H164A; T167A

- response (5 µM MudCC, parent: est. 98): 120 AU
- response (20 µM MudCC, parent: est. 140): 140 AU
Substance: MBP:Hts (110-401), full-length Hts aldolase domain (from UniProt Q02645) R205A; D207A

- response (left plot, 5 µM MudCC, parent: est. 120): 7 AU
- response (left plot, 20 µM MudCC, parent: est. 140): 24 AU
Substance: MBP:Hts (110-401), full-length Hts aldolase domain (from UniProt Q02645) Y159A; L162A; E165A

- response (right plot, 5 µM MudCC, parent: est. 110): 38 AU
- response (right plot, 10 µM MudCC, parent: est. 120): 86 AU
- response [1]: 140 AU
Substance: MBP:Hts (110-310), CThelix truncation of the Hts aldolase domain (from UniProt Q02645) L139A

- response (right plot, 5 µM MudCC, parent: est. 99): 120 AU
- response [1]: 140 AU
Substance: MBP:Hts (110-310), CThelix truncation of the Hts aldolase domain (from UniProt Q02645) R128A
